Biological target: DNA (cytosine-5) methyltransferase (Homo sapiens, UniProt P26358 P26358:1-1616)
Assay: tritiated AdoMet methyl transfer, 37 C, HEPES pH 7.0, 50 mM NaCl, 75 uM spermine; methyl at short arm end stimulates rate
Details: tags: none; purified from human placenta (partially purified/crude preparation for the covalent complexes); gapped foldback with L5 linker loop
Description: For the determination of initial velocities with oligodeoxynucleotide substrates, the enzyme was dialyzed for 3 hours in a Hoefer microdialyzer (Health Products Inc., Rockford, Ill.) against 38 mM glycine, 17% v/v glycerol, 5 mM Tris, 10 mM β-mercaptoethanol, pH 7.8 at 4° C. The final reaction volume of 100 μl contained: 0.4 μg total DNA, 50 mM HEPES pH 7.0, 50 mM NaCl, 2 mM DTT, 75 μM Spermine, 10% v/v glycerol and […] [^3H]AdoMet (Amersham, 15 Ci/mmole). Reaction mixtures were preincubated at 37° C. for 15 minutes before the addition of 44 U of DNA methyltransferase to initiate the reaction. The reaction rate was linear under these conditions for 30 minutes. After 20 minutes of incubation, the reactions were stopped by the addition of 5 ml of cold TCA (5% w/v TCA containing 5 mM potassium pyrophosphate). Tritium incorporated into TCA insoluble DNA was determined as previously described (Smith, S. S., supra).

Chain of DNA (cytosine-5) methyltransferase (P26358 whole entry, one chain of several): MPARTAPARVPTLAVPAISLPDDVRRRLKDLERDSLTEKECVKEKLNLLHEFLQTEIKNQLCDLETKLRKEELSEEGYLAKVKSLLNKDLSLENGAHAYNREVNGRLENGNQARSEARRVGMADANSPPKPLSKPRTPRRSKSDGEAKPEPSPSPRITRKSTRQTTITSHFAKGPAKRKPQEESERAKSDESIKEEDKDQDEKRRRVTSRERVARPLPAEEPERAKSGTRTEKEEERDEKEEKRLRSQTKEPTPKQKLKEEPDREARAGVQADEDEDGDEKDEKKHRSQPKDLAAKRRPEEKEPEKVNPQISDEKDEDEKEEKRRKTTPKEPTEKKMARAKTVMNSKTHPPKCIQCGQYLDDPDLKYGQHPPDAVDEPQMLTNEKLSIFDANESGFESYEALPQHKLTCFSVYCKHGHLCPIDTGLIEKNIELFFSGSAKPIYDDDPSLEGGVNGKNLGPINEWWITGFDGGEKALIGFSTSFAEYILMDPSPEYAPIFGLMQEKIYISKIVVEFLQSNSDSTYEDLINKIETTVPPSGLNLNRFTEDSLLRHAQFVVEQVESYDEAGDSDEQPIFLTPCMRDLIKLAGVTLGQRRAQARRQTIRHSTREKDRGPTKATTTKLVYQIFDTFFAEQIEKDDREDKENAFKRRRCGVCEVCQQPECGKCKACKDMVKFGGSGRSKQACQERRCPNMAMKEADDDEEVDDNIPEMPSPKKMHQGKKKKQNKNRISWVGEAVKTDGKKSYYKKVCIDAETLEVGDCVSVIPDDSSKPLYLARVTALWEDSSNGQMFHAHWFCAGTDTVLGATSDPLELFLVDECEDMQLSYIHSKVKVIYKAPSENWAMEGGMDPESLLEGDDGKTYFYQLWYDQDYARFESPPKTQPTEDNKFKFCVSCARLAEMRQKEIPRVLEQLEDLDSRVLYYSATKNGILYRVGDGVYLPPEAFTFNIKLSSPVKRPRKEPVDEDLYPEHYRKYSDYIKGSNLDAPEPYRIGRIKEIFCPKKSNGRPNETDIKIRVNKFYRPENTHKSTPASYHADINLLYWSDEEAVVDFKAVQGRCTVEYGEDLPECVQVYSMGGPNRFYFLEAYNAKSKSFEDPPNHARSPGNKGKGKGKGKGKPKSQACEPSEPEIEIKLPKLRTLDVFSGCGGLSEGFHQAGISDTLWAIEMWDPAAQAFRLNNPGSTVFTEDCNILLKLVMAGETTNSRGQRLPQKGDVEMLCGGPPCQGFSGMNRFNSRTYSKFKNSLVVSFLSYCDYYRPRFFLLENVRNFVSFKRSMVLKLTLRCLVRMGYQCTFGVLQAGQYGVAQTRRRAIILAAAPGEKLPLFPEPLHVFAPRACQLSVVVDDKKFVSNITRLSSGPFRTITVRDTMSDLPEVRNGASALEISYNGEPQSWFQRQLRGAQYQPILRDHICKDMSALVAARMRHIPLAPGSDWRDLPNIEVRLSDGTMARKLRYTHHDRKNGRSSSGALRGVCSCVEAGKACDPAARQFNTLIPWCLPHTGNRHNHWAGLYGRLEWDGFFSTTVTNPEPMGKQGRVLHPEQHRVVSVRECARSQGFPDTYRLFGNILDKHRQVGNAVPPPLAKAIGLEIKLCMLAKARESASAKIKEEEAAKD

B1: 48L-1 (structured_DNA)
DNA: TCGAGGCCAGGTAGCCCGGATCTGGTGGACGTCCACCAGATCC
modifications: five non-nucleotide linker units between 30mer and 13mer; 5mC at end of short arm
- activity: > 100 fold stimulation
